Source: article PMC9314101

Target: PtrMYB074 (Populus trichocarpa, UniProt B9IEX5 1-371)
Assay: EMSA

B1: PtrbHLH186 promoter W-box probe (dsDNA)
DNA 1: CTATAGTTTGACTGTA
DNA 2: TACAGTCAAACTATAG
  binding result: no binding
